Target: mouse PIEZO1-S2472E mutant (mouse) (UniProt E2JF22)
Assay: cryo-EM structure

stoichiometry N: 3
Substance: mouse PIEZO1-S2472E mutant, E2JF22 1-2547

Source: article doi:10.1101/2023.09.28.559900
